Measurements: patent publication US20190071490A1 (BETH ISRAEL DEACONESS MEDICAL CENTER, published 2019)
Positions count from the first letter of the chain named. Numbers in names are those of the source. Ends that are not written are not given here.

T1: human α-CGRP 1-37 (WT) (human, C-terminal amide; N-terminal biotin when captured on the SA chip; 125I-labelled in the radioligand assay)
T1 construct: also called α-human
T1 peptide: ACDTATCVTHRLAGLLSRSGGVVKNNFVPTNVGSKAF

B1: G1 variant M76 Fab (Fab, V domains shown)
VH: EVQLVESGGGLVQPGGSLRLSCAASGFTFSNYWISWVRQAPGKGLEWVAEIRSESDGSATHYAEAVKGRFTISRDNAKNSLYLQMNSLRAEDTAVYYCTVYFDYGLAIQNYWGQGTLVTVSS
VL: EIVLTQSPATLSLSPGERATLSCKASKNVSTYVSWYQQKPGQAPRLLIYAASNRYTGIPARFSGSGSGTDFTLTISSLEPEDFAVYYCSQSYNYPYTFGQGTKLEIK
notes: Fab; constant domains as m1
B2: G1 variant M77 Fab (Fab, V domains shown)
VH: B1 VH with E54K, G57D
VL: B1 VL
notes: Fab; constant domains as m1
B3: G1 variant M80 Fab (Fab, V domains shown)
VH: B1 VH with E54K, G57N, S58V
VL: B1 VL with A50G, T56I
notes: Fab; constant domains as m1; printed L561 read as L56I
B4: G1 variant M82 Fab (Fab, V domains shown)
VH: B1 VH with G57N
VL: B1 VL with S30V, A50G, A51H
notes: Fab; constant domains as m1
B5: G1 variant M81 Fab (Fab, V domains shown)
VH: B1 VH with E54K, G57N, S58E
VL: B1 VL with A50G, T56S
notes: Fab; constant domains as m1
B6: G1 variant M79 Fab (Fab, V domains shown)
VH: B1 VH with E54K, G57P
VL: B1 VL
notes: Fab; constant domains as m1
B7: G1 variant M78 Fab (Fab, V domains shown)
VH: B1 VH with E54K, G57N, S58T
VL: B1 VL
notes: Fab; constant domains as m1
B8: G1 variant M83 Fab (Fab, V domains shown)
VH: B1 VH with E54K, G57N, S58M, H61F
VL: B1 VL with S30V, A50G, A51H
notes: Fab; constant domains as m1
B9: G1 variant M84 Fab (Fab, V domains shown)
VH: B1 VH with E54N, G57N
VL: B1 VL with S30V, A50G, A51H
notes: Fab; constant domains as m1
B10: human α-CGRP 19-36 (peptide)
peptide: SGGVVKNNFVPTNVGSKA-OH
notes: also called 19-36-COOH; peptide fragment 19-36
B11: Human adrenomedullin (1-52) (peptide)
peptide: YRQSMNNFQGLRSFGCRFGTCTVQKLAHQIYQFTDKDKDNVAPRSKISPQGY-NH2
modifications: ends and bridges not checked
B12: human α-CGRP 19-37-COOH (peptide)
peptide: SGGVVKNNFVPTNVGSKAF-OH
notes: also called 19-37 (not amidated at the C-terminus)
B13: rat α-CGRP (1-37) (peptide)
peptide: SCNTATCVTHRLAGLLSRSGGVVKDNFVPTNVGSEAF-NH2
modifications: ends and bridges not checked; also: N-terminal biotin when captured on the SA chip
notes: also called rat α (1-37); α-rat
B14: human α-CGRP 1-36-COOH (peptide)
peptide: ACDTATCVTHRLAGLLSRSGGVVKNNFVPTNVGSKA-OH
modifications: ends and bridges not checked
notes: also called 1-36 (not amidated at the C-terminus)

Biological target: B13
Experiment: Biacore, 37°C, Fab over CGRP on SA chip
Outline: (§1)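 Fab analyte flowed over N-biotinylated CGRP captured at low density on a streptavidin chip in HBS-EP (pH 7.4), 1-min injections at 100 μL/min, at least 10 min dissociation.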

Kd	koff	binding result	Binder
64.4 nM	0.00116 s⁻¹		B1
794 nM	0.0143 s⁻¹		B2
5520 nM	0.0993 s⁻¹		B3
388 nM	0.00699 s⁻¹		B4
238 nM	0.00429 s⁻¹		B5
10600 nM	0.19 s⁻¹		B6
9280 nM	0.167 s⁻¹		B7
		no binding	B8
978 nM	0.0176 s⁻¹		B9

Biological target: T1, human α-CGRP 1-37 (WT)
Experiment: Biacore, 37°C, Fab over CGRP on SA chip
Outline: as §1

Kd	koff	Binder
2.28 nM	0.000364 s⁻¹	B1
2.98 nM	0.000477 s⁻¹	B2
13.1 nM	0.00209 s⁻¹	B3
5.48 nM	0.000877 s⁻¹	B4
3.06 nM	0.00049 s⁻¹	B5
8.06 nM	0.00129 s⁻¹	B6
8.19 nM	0.00131 s⁻¹	B7
5.83 nM	0.000933 s⁻¹	B8
6.75 nM	0.00108 s⁻¹	B9

These binders were tested against antibody G1 Fab fragment (assay: Biacore competition: G1 Fab (50 nM) pre-incubated with competing peptide, flowed over human α-CGRP on SA chip).
From the text: (§2) Y axis represents percentage of binding blocked by the presence of the competing peptide compared with the binding in the absence of the competing peptide.
(§3) All these peptides are amidated at the C-terminus.

binding result	Binder
no binding (tested: 10 µM)	ACDTATCVTHRLAGLLSRS-OH (ends and bridges not checked) [human α-CGRP 1-19-COOH]
no binding (tested: 10 µM)	KCNTATCATQRLANFLVHSSNNFGAILSSTNVGSNTY-NH2 (ends and bridges not checked) [Human amylin (1-37)]
no binding (tested: 10 µM)	B10
no binding (tested: 10 µM)	CGNLSTCMLGTYTQDFNKFHTFPQTAIGVGAP-NH2 (ends and bridges not checked) [Human calcitonin (1-32)]
no binding (tested: 10 µM)	ACDTATCVTHRLA-OH (ends and bridges not checked) [human α-CGRP 1-13-COOH]
no binding (tested: 10 µM)	B11

The binders below were run against antibody G1 Fab fragment (assay: Biacore competition: G1 Fab (50 nM) pre-incubated 1 h with 10 µM competing peptide, then flowed over N-biotinylated human α-CGRP on SA chip; percent of binding to chip-bound human α-CGRP blocked).
From the text: as §2, §3
Target sequence in this assay (VH, as listed by the source, chain 1 of 2): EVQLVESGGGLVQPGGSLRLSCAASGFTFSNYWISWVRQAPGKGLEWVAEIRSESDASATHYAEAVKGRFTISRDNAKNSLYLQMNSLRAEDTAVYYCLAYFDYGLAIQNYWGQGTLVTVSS
Target sequence in this assay (VL, as listed by the source, chain 2 of 2): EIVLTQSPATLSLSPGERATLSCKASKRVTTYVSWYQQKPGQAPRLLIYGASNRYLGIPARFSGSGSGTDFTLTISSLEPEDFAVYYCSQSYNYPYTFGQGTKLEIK

% Binding Blocked	Binder
83.3%	B12
100%	SGGVVKNNFVPTNVGSEAF-NH2 (also: N-terminal biotin when on the chip, the entry already carries K35E) [human α-CGRP K35E (19-37)]
91.7%	SGGVVKNNFVPTNVGSKAA-NH2 (the entry already carries F37A) [human α-CGRP F37A (19-37)]
100%	SGGVVKNNFVATNVGSKAF-NH2 (the entry already carries P29A) [human α-CGRP P29A (19-37)]
100%	SGGVVKNNFVPTNVGSMAF-NH2 (also: N-terminal biotin when on the chip, the entry already carries K35M) [human α-CGRP K35M (19-37)]
100%	SGGVVKNNFVPTNVGSAAF-NH2 (also: N-terminal biotin when on the chip, the entry already carries K35A) [human α-CGRP K35A (19-37)]
0.6%	B10
100%	B13
40.6%	B14

These binders were tested against antibody G1 Fab fragment (assay: Biacore competition: 50 nM G1 Fab with 10 µM peptide over human α-CGRP on chip).
From the text: as §2, §3
Target sequence in this assay (VH, as listed by the source, chain 1 of 2): as the sequence (VH, as listed by the source, chain 1 of 2) above
Target sequence in this assay (VL, as listed by the source, chain 2 of 2): as the sequence (VL, as listed by the source, chain 2 of 2) above

percentage of binding blocked	Binder
100%	SGGVVKNNFVPTNVGSEAF-NH2 (also: N-terminal biotin when on the chip, the entry already carries K35E) [human α-CGRP K35E (19-37)]
100%	SGGVVKNNFVATNVGSKAF-NH2 (the entry already carries P29A) [human α-CGRP P29A (19-37)]
100%	SGGVVKNNFVPTNVGSMAF-NH2 (also: N-terminal biotin when on the chip, the entry already carries K35M) [human α-CGRP K35M (19-37)]
100%	SGGVVKNNFVPTNVGSAAF-NH2 (also: N-terminal biotin when on the chip, the entry already carries K35A) [human α-CGRP K35A (19-37)]
100%	B13
~40%	B14
